Measurements taken from publication PMC5944358 (The Biochemical journal, 2018).
Substitutions are numbered along the chain they refer to. Numbers in names are those of the source.

B1: Microvirin (MVN) (natural protein)
chain: MPNFSHTCSSINYDPDSTILSAECQARDGEWLPTELRLSDHIGNIDGELQFGDQNFQETCQDCHLEFGDGEQSVWLVCTCQTMDGEWKSTQILLDSQIDNNDSQLEIG
B2: MVN(Q81K/M83R) (natural protein)
chain: B1 chain with Q81K, M83R
B3: cyanovirin-N (CVN) (natural protein)
chain: LGKFSQTCYNSAIQGSVLTSTCERTNGGYNTSSIDLNSVIENVDGSLKWQPSNFIETCRNTQLAGSSELAAECKTRAQQFVSTKINLDDHIANIDGTLKYE
B4: MVN_Q81K (natural protein)
chain: B1 chain with Q81K
B5: MVN_G43E/G85Q (natural protein)
chain: B1 chain with G43E, G85Q
B6: MVN_G43E (natural protein)
chain: B1 chain with G43E
B7: MVN_G43E/M83R (natural protein)
chain: B1 chain with G43E, M83R
B8: MVN_Q81K/G85Q (natural protein)
chain: B1 chain with Q81K, G85Q
B9: MVN_G43E/Q81K/M83R/G85Q (natural protein)
chain: B1 chain with G43E, Q81K, M83R, G85Q
B10: MVN_G43E/Q81K (natural protein)
chain: B1 chain with G43E, Q81K
B11: MVN_M83R (natural protein)
chain: B1 chain with M83R
B12: MVN_Q81K/M83R/G85Q (natural protein)
chain: B1 chain with Q81K, M83R, G85Q
B13: MVN_G85Q (natural protein)
chain: B1 chain with G85Q

Each binder was assayed against T1, HIV-1 YU2 gp120 (HIV-1 YU2, UniProt P35961 32-498) (assay: ELISA).
For B1, the IC50 was 68 ± 8 nM.

These binders were tested against T1, HIV-1 YU2 gp120 (assay: ITC).
In the case of B1, the Kd is reported as 225 ± 10 nM and the “stoichiometry N” value is reported as 1.29 ± 0.04 protein:gp120.
With B2 the Kd was 75 ± 11 nM and the “stoichiometry N” value was 1.31 ± 0.132 protein:gp120.

The binders below were run against T1, HIV-1 YU2 gp120 (assay: SPR).
Binder B1 has a Kd of 120 nM.
B3 showed a Kd of 8.65 nM, a koff of 1.48e-05 s⁻¹ and a kon of 1710 M⁻¹ s⁻¹.

Target: T1, HIV-1 YU2 gp120
Test: SPR
Remark: another data set of the same source
B1 was tested, and the koff was 0.000445 s⁻¹ and the kon was 4160 M⁻¹ s⁻¹.
In the case of B4, the Kd is reported as 45 nM, the “k1 (step 1, association)” value is reported as 1.73e+06 M⁻¹ s⁻¹ and the “k2 (step 2, forward)” value is reported as 0.0048 M⁻¹ s⁻¹. For the same binder, the “k-1 (step 1, dissociation)” value was 0.16 s⁻¹, the “k-2 (step 2, reverse)” value was 0.0023 s⁻¹ and the koff was 0.000368 s⁻¹. The kon was 9180 M⁻¹ s⁻¹.
B5 was tested, and the Kd was 180 nM, the “k1 (step 1, association)” value was 90000 M⁻¹ s⁻¹ and the “k2 (step 2, forward)” value was 0.0077 M⁻¹ s⁻¹. For the same binder, the “k-1 (step 1, dissociation)” value was 0.051 s⁻¹, the “k-2 (step 2, reverse)” value was 0.0024 s⁻¹ and the koff was 0.000122 s⁻¹. The kon was 710 M⁻¹ s⁻¹.
With B6 the Kd was 360 nM, the “k1 (step 1, association)” value was 340000 M⁻¹ s⁻¹ and the “k2 (step 2, forward)” value was 0.0049 M⁻¹ s⁻¹. For the same binder, the “k-1 (step 1, dissociation)” value was 0.244 s⁻¹, the “k-2 (step 2, reverse)” value was 0.0025 s⁻¹ and the koff was 0.00061 s⁻¹. For the same binder, the kon was 2020 M⁻¹ s⁻¹.
For B7, the Kd was 130 nM, the “k1 (step 1, association)” value was 110000 M⁻¹ s⁻¹ and the “k2 (step 2, forward)” value was 0.0075 M⁻¹ s⁻¹. For the same binder, the “k-1 (step 1, dissociation)” value was 0.045 s⁻¹, the “k-2 (step 2, reverse)” value was 0.0023 s⁻¹ and the koff was 0.000103 s⁻¹. For the same binder, the kon was 980 M⁻¹ s⁻¹.
With B8 the Kd was 101 nM, the “k1 (step 1, association)” value was 160000 M⁻¹ s⁻¹ and the “k2 (step 2, forward)” value was 0.0041 M⁻¹ s⁻¹. For the same binder, the “k-1 (step 1, dissociation)” value was 0.053 s⁻¹, the “k-2 (step 2, reverse)” value was 0.00178 s⁻¹ and the koff was 9.4e-05 s⁻¹. The kon was 880 M⁻¹ s⁻¹.
B9 was tested, and the Kd was 100 nM, the “k1 (step 1, association)” value was 240000 M⁻¹ s⁻¹ and the “k2 (step 2, forward)” value was 0.0063 M⁻¹ s⁻¹. For the same binder, the “k-1 (step 1, dissociation)” value was 0.078 s⁻¹, the “k-2 (step 2, reverse)” value was 0.002 s⁻¹ and the koff was 0.000156 s⁻¹. For the same binder, the kon was 1490 M⁻¹ s⁻¹.
In the case of B10, the Kd is reported as 120 nM, the “k1 (step 1, association)” value is reported as 180000 M⁻¹ s⁻¹ and the “k2 (step 2, forward)” value is reported as 0.0082 M⁻¹ s⁻¹. For the same binder, the “k-1 (step 1, dissociation)” value was 0.064 s⁻¹, the “k-2 (step 2, reverse)” value was 0.0027 s⁻¹ and the koff was 0.000173 s⁻¹. For the same binder, the kon was 1660 M⁻¹ s⁻¹.
With B11 the Kd was 52 nM, the “k1 (step 1, association)” value was 290000 M⁻¹ s⁻¹ and the “k2 (step 2, forward)” value was 0.0076 M⁻¹ s⁻¹. The “k-1 (step 1, dissociation)” value was 0.05 s⁻¹, the “k-2 (step 2, reverse)” value was 0.0029 s⁻¹ and the koff was 0.000145 s⁻¹. The kon was 2990 M⁻¹ s⁻¹.
In the case of B12, the Kd is reported as 77 nM, the “k1 (step 1, association)” value is reported as 340000 M⁻¹ s⁻¹ and the “k2 (step 2, forward)” value is reported as 0.0055 M⁻¹ s⁻¹. For the same binder, the “k-1 (step 1, dissociation)” value was 0.058 s⁻¹, the “k-2 (step 2, reverse)” value was 0.0041 s⁻¹ and the koff was 0.000232 s⁻¹. It also gave a kon of 3240 M⁻¹ s⁻¹.
B13 was tested, and the Kd was 72 nM, the “k1 (step 1, association)” value was 290000 M⁻¹ s⁻¹ and the “k2 (step 2, forward)” value was 0.0089 M⁻¹ s⁻¹. For the same binder, the “k-1 (step 1, dissociation)” value was 0.071 s⁻¹, the “k-2 (step 2, reverse)” value was 0.0027 s⁻¹ and the koff was 0.000191 s⁻¹. The kon was 2960 M⁻¹ s⁻¹.
B2 was tested, and the Kd was 21 nM, the “k1 (step 1, association)” value was 310000 M⁻¹ s⁻¹ and the “k2 (step 2, forward)” value was 0.0051 M⁻¹ s⁻¹. For the same binder, the “k-1 (step 1, dissociation)” value was 0.03 s⁻¹, the “k-2 (step 2, reverse)” value was 0.0011 s⁻¹ and the koff was 3.3e-05 s⁻¹. For the same binder, the kon was 1880 M⁻¹ s⁻¹.
